Measured values published in patent US6632627B2, “Glutamine: fructose-6-phosphate amidotransferase, its production and use” (Takeda Chemical Industries, Ltd., priority 1997, dated 2003).

Assay: Detection of GFAT activity of the proteins (HPLC detection of PITC-bound glucosamine-6-phosphate)
Assay type: biochemical
Conditions: 1 μl recombinant protein in 100 μl reaction mixture; 6 mM glutamine, 10 mM fructose-6-phosphate; pH 7.5; room temperature, 5 hours
Protocol: GFAT activity of the proteins: TGC028-3 and TGC028-4 was measured in the following manner. In a solution (0.1 M K2HP04, 50 mM KCl, 50 mM HEPES, 1 mM EDTA, 5 mM DTT, pH 7.5) were added glutamine and fructose-6-phosphate to final concentrations of 6 mM and 10 mM, respectively. Then, in 100 μl of this reaction mixture was added 1 μl of TGC028-3 or TGC028-4 protein, and the reaction mixture was incubated at room temperature for 5 hours. Thereafter, the reaction mixture was subjected to centrifugal filtration using a Ultrafree C3GC (cut-off molecular weight: 10,000; Millipore) and the filtrate obtained was mixed with an equal volume of a solution consisted of methanol, water, and triethylamine at the ratio of 2:2:1. After the mixture was dried in vacuo, the residue was dissolved in 20 μl of a mixed solution of methanol, water, and triethylamine-phenyl isothiocyanate (PITC) at the ratio of 7:1:1:1 and the reaction was carried out at room temperature for 20 minutes. […] Elution was carried out using a mobile phase comprising 232 mM sodium acetate, 0.1% triethylamine and 5% acetonitrile (pH 6.0) at a flow rate of 1 ml/minute and PITC-bound glucosamine-6-phosphate was detected at UV 254 nm.

B1: TGC028-3: human-derived protein having the amino acid sequence of SEQ ID NO:2 (615 residues), novel GFAT protein expressed in E. coli (protein)
chain: MCGIFAYMNYRVPRTRKEIFETLIKGLQRLEYRGYDSAGVAIDGNNHEVKERHIQLVKKRGKVKALDEELYKQDSMDLKVEFETHFGIAHTRWATHGVPSAVNSHPQRSDKGNEFVVIHNGIITNYKDLRKFLESKGYEFESETDTETIAKLIKYVFDNRETEDITFSTLVERVIQQLEGAFALVFKSVHYPGEAVATRRGSPLLIGVRSKYKLSTEQIPILYRTCTLENVKNICKTRMKRLDSSACLHAVGDKAVEFFFASDASAIIEHTNRVIFLEDDDIAAVADGKLSIHRVKRSASDDPSRAIQTLQMELQQIMKGNFSAFMQKEIFEQPESVFNTMRGRVNFETNTVLLGGLKDHLKEIRRCRRLIVIGCGTSYHAAVATRQVLEELTELPVMVELASDFLDRNTPVFRDDVCFFISQSGETADTLLALRYCKDRGALTVGVTNTVGSSISRETDCGVHINAGPEIGVASTKAYTSQFISLVMFGLMMSEDRISLQNRRQEIIRGLRSLPELIKEVLSLEEKIHDLALELYTQRSLLVMGRGYNYATCLEGALKIKEITYMHSEGILAGELKHGPLALIDKQMPVIMVIMKDPCFAKCQNALQQVTARQV
- GFAT activity: formation of glucosamine-6-phosphate (peak of PITC-bound glucosamine-6-phosphate by HPLC, UV 254 nm): a peak was confirmed at the position corresponding to PITC-bound glucosamine-6-phosphate

B2: TGC028-4: human-derived protein having the amino acid sequence of SEQ ID NO:3 (682 residues), constructed from TGC028-3 and a GFAT-like DNA fragment (protein)
chain: MCGIFAYMNYRVPRTRKEIFETLIKGLQRLEYRGYDSAGVAIDGNNHEVKERHIQLVKKRGKVKALDEELYKQDSMDLKVEFETHFGIAHTRWATHGVPSAVNSHPQRSDKGNEFVVIHNGIITNYKDLRKFLESKGYEFESETDTETIAKLIKYVFDNRETEDITFSTLVERVIQQLEGAFALVFKSVHYPGEAVATRRGSPLLIGVRSKYKLSTEQIPILYRTCTLENVKNICKTRMKRLDSSACLHAVGDKAVEFFFASDASAIIEHTNRVIFLEDDDIAAVADGKLSIHRVKRSASDDPSRAIQTLQMELQQIMKGNFSAFMQKEIFEQPESVFNTMRGRVNFETNTVLLGGLKDHLKEIRRCRRLIVIGCGTSYHAAVATRQVLEELTELPVMVELASDFLDRNTPVFRDDVCFFISQSGETADTLLALRYCKDRGALTVGVTNTVGSSISRETDCGVHINAGPEIGVASTKAYTSQFISLVMFGLMMSEDRISLQNRRQEIIRGLRSLPELIKEVLSLEEKIHDLALELYTQRSLLVMGRGYNYATCLEGALKIKEITYMHSEGILAGELKHGPLALIDKQMPVIMVIMKDPCFAKCQNALQQVTARQGRPIILCSKDDTESSKFAYKTIELPHTVDCLQGILSVIPLQLLSFHLAVLRGYDVDFPRNLAKSVTVE
- GFAT activity: formation of glucosamine-6-phosphate (peak of PITC-bound glucosamine-6-phosphate by HPLC, UV 254 nm): a peak was confirmed at the position corresponding to PITC-bound glucosamine-6-phosphate
